Like-named read-outs stand apart in the source and are kept apart here. Blank lines part the entries; values can stand above or below the molecule they belong to.
Columns and labels:
[1] = molecular target: His6-sP36 purified from homologous expression in M. mazei (Methanosarcina mazei); assay: SEC; analytical gel filtration, ENrich SEC 650; 0.5 mg untagged sP36 or 0.3 mg His6-sP36; eluted with 50 mM phosphate buffer (150 mM NaCl, pH 8.0), 1 mL/min; BioRad size-exclusion standard
[2] = molecular target: small protein 36 (sP36), untagged, purified from heterologous expression in E. coli (Methanosarcina mazei); assay: MST; RED-NHS-labelled untagged sP36 at 100 nM held constant (the methods say 10 nM for the AmtB1 series); AmtB1-His6 (12.5 µM to 0.38 nM) or His6-GlnK1 (7.5 µM to 0.23 nM) in 16 dilutions; concentrations on monomeric mass; standard capillaries, 100% excitation power, medium or high MST power; three biological replicates
[3] = molecular target: PII-like protein GlnK1 with N-terminal His tag (Methanosarcina mazei) (UniProt Q8PYW7); assay: ITC; 20 µM GlnK1 in the cell titrated with 300 µM sP36; 100 mM potassium phosphate, 2 mM EDTA, pH 7.0, 25°C; model for a single ligand binding site
[4] = molecular target: small protein 36 (sP36), untagged, purified from heterologous expression in E. coli (Methanosarcina mazei); assay: SEC; analytical gel filtration, ENrich SEC 650; 0.5 mg untagged sP36 or 0.3 mg His6-sP36; eluted with 50 mM phosphate buffer (150 mM NaCl, pH 8.0), 1 mL/min; BioRad size-exclusion standard
[5] = molecular target: small protein 36 (sP36), untagged, purified from heterologous expression in E. coli (Methanosarcina mazei); assay: MST; RED-NHS-labelled untagged sP36 at 100 nM held constant (the methods say 10 nM for the AmtB1 series); AmtB1-His6 (12.5 µM to 0.38 nM) or His6-GlnK1 (7.5 µM to 0.23 nM) in 16 dilutions; concentrations on monomeric mass; standard capillaries, 100% excitation power, medium or high MST power; three biological replicates; remark: listed apart in the source

Molecule: His6-sP36 purified from homologous expression in M. mazei (natural protein)
- stoichiometry N [1]: 6

B1: PII-like protein GlnK1 with N-terminal His tag (natural protein)
chain: MVAMKYVIAMIRPERLDAVKRELQKIEVSRLTVSSVSGYGAQKGYMEIYRAMEYDANLLEKIKIEIAVNDEFLEPTIEAIKTGAKGSDGYVGSGKIFVLPLENVIRIRTNETGPEAI
- Kd [5]: 1800 nM

Second part, the molecule after the results:

- Kd [2]: 260 nM
Molecule: ammonium transporter AmtB1 with C-terminal His6-tag (from UniProt Q8U4U2 1-397) (natural protein)

- Kd [3]: 5400 nM
- stoichiometry N (sP36 monomers per GlnK1 monomer) [3]: 2
- stoichiometry N [4]: 6
Molecule: small protein 36 (sP36), untagged, purified from heterologous expression in E. coli (natural protein)
